Assay results reported in paper PMC3166062, “Self-Association of an Activating Natural Killer Cell Receptor, KIR2DS1” (PLoS ONE, 2011).

Target: the molecule itself
Test: dynamic light scattering; KIR2DS1 3 µM in 10 mM Tris-HCl, 150 mM sodium chloride, 0.4 mM sodium azide, 25°C; Zetasizer Nano ZS; mean hydrodynamic diameter 320 nm

B1: extracellular region of KIR2DS1 (domain or fragment)
chain: MAHEGVHRKPSLLAHPGRLVKSEETVILQCWSDVMFEHFLLHREGMFNDTLRLIGEHHDGVSKANFSISRMRQDLAGTYRCYGSVTHSPYQLSAPSDPLDIVIIGLYEKPSLSAQPGPTVLAGENVTLSCSSRSSYDMYHLSREGEAHERRLPAGTKVNGTFQANFPLGPATHGGTYRCFGSFRDSPYEWSKSSDPLLVSVTLVPRGS
notes: No cleavage of the tag is described; also called extracellular portion of KIR2DS1
binding result: binds
